First the molecules themselves.
B1: His-tagged human Sar1A (H79G) [human] / RRFR peptides (first intracellular loop of Fzd6) [mouse] (parent complex)
chain 1: not shown
chain 2: VRRFRYPERPC

This test covers variants of B1. Briefly: peptide pull-down (peptides linked to thiopyridone-Sepharose 6B), immunoblot quantification; n = 3; parent: 1; read off a plot.
Regarding chain 2 R2A, chain 2 R3A, chain 2 R5A, the ratio to parent is roughly 0.08.
